Test results reported in the nanobody polyreactivity screen of Harvey et al. (2022).

Experiment: yeast display, Sf9 membrane polyspecificity reagent, FACS + sequencing; frameworks hold sequencing errors
Method in brief: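 After 36–48 hours of galactose induction, yeast (Saccharomyces cerevisiae BJ5465) displaying a synthetic nanobody library were stained at 4 °C for 1 hour with 10% biotinylated, detergent-solubilized Sf9 membrane reagent. Streptavidin microbeads enriched the stained cells before FACS sorting into low and high (top ~1%) gates on anti-HA and streptavidin fluorescence. Each clone's polyreactivity label reflects its gate of origin.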

| Sequence | polyreactivity (PSR sort gate) |
| --- | --- |
| QVQLVESGGGLVQAGGSLRLSCAASGSTFGPYAMGWYRQAPGKEVELVAAITASVGSTYYAESVKGRFTISRDNAKNTVYLQMNSLKPEDTAVYYCNADLSYFFGPYWGLYGLDYWGQGTQVTVSS | low polyreactivity |
| QVQLVESGGGLVQAGGSLRLSCAASGSTFGPYTMGWYRQAPGKERELVAAISYSGASTYYADSVKGRFTISRDNAMNTVYLQMNSLKPEDTAVYYCNTVYRYTRARYPYDYWGQGTQVTVSS | high polyreactivity |
| QVQLVESGGGLVQAGGSLRLSCAASGSTFGPYVMGWYRQAPGKERELVAAISQSGGSTYYADSVKGRFTISRDNAKNTVYLQMNSLKPEDTAVYYCAAQTPYGMYYWGQGTQVTVSS | low polyreactivity |
| QVQLVESGGGLVQAGGSLRLSCAASGSTFGQYALGWYRQAPGKERELVATISSGSTYYADSVKGRFTISRDNAKNTVYLQMNSLKPEDTAVYYCAARRIHTTSSRGYYWGQGSQVTVSS | high polyreactivity |
| QVQLVESGGGLVQAGGSLRLSCAASGSTFGQYAMGWYRQAPGKERELVAAISRNGGRTYYADSVKGRFTISRDNAKNTVYLQMNSLKPEDTAVYYCAAGGFHYVYYRGMYYWGQGTQVTVSS | high polyreactivity |
| QVQLVESGGGLVQAGGSLRLSCAASGSTFGRNAMGWYRQAPGKERELVAAISTSGSRTYYADSVKGRFTISRDNAKNTVYLQMNSLKPEDTAVYYCNAYGVSRGSYGTRGYWGQGTQVTVSS | high polyreactivity |
| QVQLVESGGGLVQAGGSLRLSCAASGSTFGRNAMGWYRQSPGKERELVAAISSRGGGTYYADSVKGRFTISRDNAKNSVYLQMNSLKPEDTAVYYCAADYVYGYYPKYTYKPSGYWGQGTQVTVTS | high polyreactivity |
| QVQLVESGGGLVQAGGSLRLSCAASGSTFGRYAMGWYRQAPGKERELVAAISRGGSTYYADSVKGRFTISRDNAKNTVYLQMNSLKPEDTAVYYCNKGDSKEYDVYYWGQGTQVTVSS | low polyreactivity |
| QVQLVESGGGLVQAGGSLRLSCAASGSTFGRYAMGWYRQAPGKERELVAAISRGTTTNYADSVKGRFTFSRDIAKNTVYLQMNSLKPVDTAVYYCAAESPSVFDGYAQLYIILEDYWGQGTQVTVSS | low polyreactivity |
| QVQLVESGGGLVQAGGSLRLSCAASGSTFGRYAMGWYRQAPGKERELVAGITSSGRTNYADSVKGRFTISRDNAKNTVYLQMNSLKPEDTAVYYCAKRWLRYGYRYDYWGQGTQVTVSS | high polyreactivity |
| QVQLVESGGGLVQAGGSLRLSCAASGSTFGRYAMGWYRQARGKERELVAAISYGDGSTYYADSVKGRFTISRDYAKNTVYLQINSLIPEDTAVYYCATETETYSCWDPVWADDYDYWGQGTQVTVSS | low polyreactivity |
| QVQLVESGGGLVQAGGSLRLSCAASGSTFGRYAMVWYRQAPGKEREFVAGITGRGGSTYYADSVKGRFTISRDNAKNTVYLQMKSLKPEVNAVYYSAAGYRVGYRYDYWGQCTQVTVSS | high polyreactivity |
| QVQLVESGGGLVQAGGSLRLSCAASGSTFGRYVMGWYRQAPGKERELVAAISKNAGSTYYADSVKGRFTISRDNAKNTVYLQMNSLKPEDTAVYYCAADWRTKGYDSLGQGTQVTVSS | high polyreactivity |
| QVQLVESGGGLVQAGGSLRLSCAASGSTFGRYVMGWYRQAPGKEWELVAAISGSGGSTYYADSVKGRFTISRDNAKNTVDLQMNSLKPEDTAVYYCAAGGPTYELYRRGYWGQGTQVTVSS | high polyreactivity |
| QVQLVESGGGLVQAGGSLRLSCAASGSTFGSYAMGWYRPAPGKERELVAAISYSGGSTYYADSVKGRFTISRDNAKNTVYLQMNSLKPEDTAVYYCATVRKYRAMVYWGQGTQVTVSS | high polyreactivity |
| QVQLVESGGGLVQAGGSLRLSCAASGSTFGSYAMGWYRQAPGKERELVAAISRAGSTYADSVKGRFTISRDNAKNTVYLQMNSLKPEDTAVYYCAKRDNALYYGYDYWGQGTQVTVSS | low polyreactivity |

| Sequence | polyreactivity (PSR sort gate) |
| --- | --- |
| QVQLVESGGGLVQAGGSLRLSCAASGSTFGSYAMGWYRQAPGKERELVAAITASGGSTYYADSVKGRFTISRDNAKNTVYLQMNSLKPEDTAVYYCAADTTYIPLSIEYDYWGQGTQVTVSS | low polyreactivity |
| QVQLVESGGGLVQAGGSLRLSCAASGSTFGSYAMGWYRQAPGKERELVAAITQIGGSTYYADSVKGRFTISRDNAKNTVYLQMNSLKPEDTEVYYCAVTAGRGGYPQGGVTRGYWGQGTQVTVSS | high polyreactivity |
| QVQLVESGGGLVQAGGSLRLSCAASGSTFGSYVMGWYRQAPGKERELVAAISGSGGSTYYADSVKGRFTISRDNAKNTVYLQMTSLKPEDTAVYYCAAYVFFPWYGYWGQGTQVTVSS | high polyreactivity |
| QVQLVESGGGLVQAGGSLRLSCAASGSTFGTNAMGWSRQAPGKERELVAAITYSGGSTYYADSVKGRFTISRDNAKNTVYVQLNSLKPEDTAVYYCAARGHSSKYLWSYEYYYWGQGTQVTVSS | low polyreactivity |
| QVQLVESGGGLVQAGGSLRLSCAASGSTFGTNVMGWYRQAPGKERELVAAISNGGSTNYADSVKGRFTISRDNAKNTVYLQMNSLKPEDTAVYYCEYDYWGQGTQVTVSS | low polyreactivity |
| QVQLVESGGGLVQAGGSLRLSCAASGSTFGTYAMGWYRQAPGKERELVAAISWSGGSTYYADSVKGRFTISRDKAKNTVYLQMNSLKPEDTAVYWGQGTQVTVSS | low polyreactivity |
| QVQLVESGGGLVQAGGSLRLSCAASGSTFGTYAMGWYRQAPGKERELVATISIGGITYYADSVKGRFTISRDNAKYTVYLQMNSLKPEDTAVYYCAKDVTDPTSRSDPSGDDYWGQGTQVTVSS | low polyreactivity |
| QVQLVESGGGLVQAGGSLRLSCAASGSTFGVNAMGWYRPAPGKERELVAAISSSGSSTYADSVKGRFTISRDNAKNTVYLQMNSLKPEDTAVYYCNKTTLLTVEYDYWGQGTQVTVSS | low polyreactivity |
| QVQLVESGGGLVQAGGSLRLSCAASGSTFGVNAMGWYRQAPGKERELVAVITRSGGSTYYADSVKGRFTISRDNAKNTFNLQMNSLKPEDSAVYYCNTEGGRDTAWYDYWGQGTEVTVSS | low polyreactivity |
| QVQLVESGGGLVQAGGSLRLSCAASGSTFGVNDMGWYRQAPGKEREFVADITTSGGSTYYADSVKGRFTISRDHAKNTVYLQMNSLKPEDTAVYYCAADLWPFEHDDYWGQGTQVTVSS | low polyreactivity |
| QVQLVESGGGLVQAGGSLRLSCAASGSTFGVYAMGWYRQAPGKERELVAAITKRGGDTYYADSVKGRFTISRDNAKNTVYLQMNSLKPEDTAVYYCAAGLYVSYYWYDYWGQGTQVTVSS | high polyreactivity |
| QVQLVESGGGLVQAGGSLRLSCAASGSTFGVYAMGWYRQAPGKERELVARITSGGSTYYADSVKGRFTITRDNAKKTVYLQRNSLKPEDTAVYYCAAVYRRTRSWKFDYWGQGTQVTVAS | high polyreactivity |
| QVQLVESGGGLVQAGGSLRLSCAASGSTFGVYTMGWYRQAPGKERELVAAITKSGGSTYYADSVKGRFTISRDNAKNTVYLQMNSLKPEDTAVYYCAADATSPLTWFDYWGQGTQVTVSS | low polyreactivity |
| QVQLVESGGGLVQAGGSLRLSCAASGSTFGWNAMGSYRQAPGKERELVAAISSSGGITYYADSVKGRFTISRDNAKNTVYLQMNSLKPEDTAVYYCAARAINTWFRSGVDYGYYLTMDYWGQGTQVTVSS | low polyreactivity |
| QVQLVESGGGLVQAGGSLRLSCAASGSTFGWNAMGWYRPAPGKERELVAAISSSGGSTNYADSVKGRFTISRDNAKNTVYLQMNSLKPEDTAVYYCAARYRTLTKYYWGQGTQVTVSS | low polyreactivity |
| QVQLVESGGGLVQAGGSLRLSCAASGSTFGWNAMGWYRQAPGKERELVAAINKSGGRTYYADSVKGRFTISRDNGKNTVYLQMNRLKPEDTAVYYCAAVTPIRVTSPDYDYWGQGTQVTVSS | low polyreactivity |
